The results in this text go back to patent publication US8710017B2, “Human and mouse targeting peptides identified by phage display” (priority 2000, dated 2014).

Ends that are not written are not given here.

For test [1], the target named is T1, β3 integrin cytoplasmic domain (Homo sapiens, UniProt P05106).
T1 construct: recombinant fusion proteins containing β3 or β5 cytoplasmic domains
T1 sequence (P05106 742-788 limits assumed): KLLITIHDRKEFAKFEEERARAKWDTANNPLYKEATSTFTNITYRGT
Put plainly: Phage binding to immobilized GST-β3cyto. How it is done:
FIG. 9. Binding of β3 cytoplasmic domain-selected phage to immobilized proteins. GST fusion proteins or GST alone were coated on microtiter wells at 10 μg/ml and used to bind phage expressing endostatin targeting peptides. […] The data represent the mean colony counts from triplicate wells, with standard error of less than 10% of the mean.
β3 and β5 cytoplasmic domain-binding peptides were isolated by screening multiple phage libraries with recombinant GST fusion proteins that contained either GST-β3cyto or GST-β5cyto coated onto microtiter wells. Immobilized GST was used as a negative control for enrichment during the panning of each cytoplasmic domain. Phage were sequenced from randomly selected clones after three rounds of panning as disclosed elsewhere (Koivunen et al., 1995; Pasqualini et al., 1995). Distinct sequences were isolated that interacted specifically with the β3 or with the β5 cytoplasmic domains (Table 9). Randomly selected clones from panning rounds II and III were sequenced. […] The ratios were calculated by dividing the number of colonies recovered from β3-GST-coated wells and those recovered from GST or BSA.
The specificity of the interaction with β3 or β5 cytoplasmic domains was determined by calculating the ratios between the number of phage bound to the cytoplasmic domain containing-fusion proteins (β3 or β5) versus GST alone (negative control). […]

A further test addresses T2, GST-β5 integrin (Homo sapiens, UniProt P18084).
T2 construct: Plates were coated with GST fusion proteins of the cytoplasmic domains of various integrins and Annexin V was added to the plates
T2 sequence (P18084 743-799 limits assumed): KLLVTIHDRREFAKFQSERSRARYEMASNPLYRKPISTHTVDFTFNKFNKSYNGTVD
The test can be described thus: Annexin V binding to GST-β5 cytoplasmic domain (ELISA), competition with VISY peptide. How it is done: (§1) Competitive binding assays were performed to examine the binding of Annexin V to β5 integrin and the effect of the VISY peptide. Plates were coated with GST fusion proteins of the cytoplasmic domains of various integrins and Annexin V was added to the plates. Binding of Annexin V was determined using anti-Annexin V antibodies. […] Calcium was used because Annexin V activity has been reported to be modulated by calcium. Binding of Annexin V to GST-β5 was blocked by addition of the VISY peptide (FIG. 20A).
A reciprocal study was performed, using Annexin V to coat plates and adding GST fusion proteins of integrin cytoplasmic domains. Binding was assessed using anti-GST fusion protein antibodies. […] In some studies, calcium ion appeared to interfere with the binding interaction between GST-β5 and Annexin V, with decreased binding observed in the presence of calcium (not shown).
In general terms: In an ELISA, binding on a coated surface is turned into a signal by an enzyme label.

The next test concerns the target GST-β1 integrin (Homo sapiens, UniProt P05556). Put plainly: Annexin V binding to GST-β1 cytoplasmic domain (ELISA). The conditions noted are these: FIG. 20A. How it is done:
as §1

The target of a further test is T3, GST-β3 integrin (Homo sapiens, UniProt P05106).
T3 construct: recombinant fusion proteins containing β3 or β5 cytoplasmic domains
T3 sequence (P05106 742-788 limits assumed): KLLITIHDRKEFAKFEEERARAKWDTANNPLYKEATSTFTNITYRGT
Put plainly: Annexin V binding to GST-β3 cytoplasmic domain (ELISA). The conditions noted are these: FIG. 20A. The method, then: as §1

Another test deals with endothelial cells. The test can be described thus: Endothelial cell migration (chemotaxis) assay with penetratin peptide chimeras. In kind it is cell-based, human. To be noted: VEGF-A 20 ng/ml, 5 h, FIG. 16. How it is done:
FIG. 16. Effect of penetratin peptide chimeras on endothelial cell migration. Cell migration assay were performed in a 48-well microchemotaxis chamber. Five random high-power fields (magnitude 40×) were counted in each well.
Cell migration assays were performed as follows: 48-well microchemotaxis chambers were used. Polyvinylpyrrolidone-free polycarbonate filters (Nucleopore, Cambridge, Mass.) with 8-μm pores were coated with 1% gelatin for 10 min at room temperature and equilibrated in M199 medium supplemented with 2% FCS. Peptides were placed in the lower compartment of a Boyden chamber in M199 supplemented with 2% FCS, 20 ng/ml VEGF-A (R&D System), and 1 U/ml heparin. Overnight-starved subconfluent cultures were quickly trypsinized, and resuspended in M199 containing 2% FCS at a final concentration of 2×10^6 cells/ml. After the filter was placed between lower and upper chambers, 50 μl of the cell suspension was seeded in the upper compartment. Cells were allowed to migrate for 5 h at 37° C. in a humidified atmosphere with 5% CO2. The filter was then removed, and cells on the upper side were scraped with a rubber policeman. […] Five random high-power fields (magnitude 40×) were counted in each well.
Cell migration was assayed in a 48-well microchemotaxis chamber. […] Five random high-power fields (magnitude 40×) were counted in each well.

For test [2], the target named is T4, β5 integrin cytoplasmic domain (Homo sapiens, UniProt P18084).
T4 construct: the screenings involving the β5 cytoplasmic domain fusion protein
T4 sequence (P18084 743-799 limits assumed): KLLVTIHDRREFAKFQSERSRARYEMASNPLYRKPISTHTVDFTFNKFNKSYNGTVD
Put plainly: Binding of Fyn-phosphorylated phage to β5 cytoplasmic domain. The method, then: Phosphorylation of peptide libraries with src family protein kinases (Fyn, c-Src, Lyn, and Syc) and serine/threonine kinases such as a MAP kinase were performed as described previously (Schmitz et al., 1996; Dente et al., 1997; Gram et al., 1997). Briefly, phage particles were collected from culture supernatants by double precipitation with 20% polyethylene glycol 8000 in 2.5 M NaCl. Particles were dissolved at 10^12 particles/ml. Purified phage (10 μl) were incubated for 3 hours at room temperature with different concentrations (35 to 3,500 units) of protein kinases in a reaction buffer volume of 50 μl. The reaction mixtures were transferred to tubes containing 10 μg of agarose-conjugated anti-P-Tyr, anti-P-Ser, or anti-P-Thr monoclonal antibodies to select phage displaying phosphorylated peptides. […] Phosphorylated peptides binding to β3 and β5 cytoplasmic domains were analyzed as described in the previous section.
Randomly selected clones from rounds III and IV were sequenced from a X4YX4 phosphorylated library with Fyn. […] The ratio of binding to β3 or β5 was calculated by dividing the number of β3 or β5 colonies by GST or BSA colonies found after panning. The ratio of binding to β3 or β5 with phosphorylated phage by Fyn versus unphosphorylated phage was calculated by dividing the number of colonies found after the panning. […]

The test system of a further test is HUVEC cells. Put plainly: Apoptosis assay (propidium iodide staining, subdiploid population). Format: cell-based, human. To be noted: 15 μM, 4 hours, FIG. 17. The method, then: FIG. 17. Penetratin peptide chimera binding to the β5 cytoplasmic domain induces programmed cell death. 10^6 HUVEC cells were harvested in complete media and 15 μM penetratin peptide chimeras were added to the cells.
Approximately 1×10^6 cells were harvested in complete media and 15 μM of peptide added for 4, 8, or 12 h. The cells were then washed in PBS and resuspended in 0.5 ml propidium iodide solution (50 μg/ml PI, 0.1% Triton X-100, 0.1% sodium citrate). After a 24-h incubation at 4° C., cells were counted with a XL Coulter (Coulter Corporation) with a 488-nm laser; 12,000 cells were counted for each histogram, and cell cycle distributions were analyzed with Multicycle program.
Approximately 1×10^6 cells were harvested in complete medium, and 15 μM of peptide was added for 4, 8, or 12 hours. The cells were then washed in PBS and resuspended in 0.5 ml propidium iodide solution (50 μg/ml PI, 0.1% Triton X-100, 0.1% sodium citrate). After a 24-h incubation at 4° C., the cells were counted with an XL Coulter (Coulter Corporation) with a 488 nm laser; 12,000 cells were counted for each histogram, and cell cycle distributions were analyzed with the Multicycle program.

A further test deals with HUVEC. Put plainly: Apoptosis by chromatin fragmentation (agarose gel) in HUVEC. In kind it is cell-based, human. To be noted: 15 μM, 2-4 hours, FIG. 21. How it is done: 10^6 HUVEC were treated with 15 μM of VISY antennapedia (penetratin) chimera or 15 μM of antennapedia peptide (pentratin) alone for 2-4 hours and chromatin fragmentation was analyzed by electrophoresis in an agarose gel.

In the next test the test system is mouse spleen cells. Put plainly: In vitro binding of Fab phage clones to spleen cells by BRASIL. In kind it is cell-based. How it is done: A singe cell suspension was prepared from two mouse spleens. The suspension was divided into five tubes and incubated on ice with 3×10^9 TU of Fab clones #2, #6, #10, #12 and 2×10^9 TU tet-phage. Phage bound to mouse spleen cells were recovered by BRASIL. 200 μl of log phase ER2537 E. coli was infected with the pellet and serial dilutions were plated on LB/carbenicillin and LB/tetracyclin plates for assessment of phage binding. Fd-tet was used as an internal control to normalize all the phage homing experiments.

The subject of another test is mouse spleen. The test can be described thus: In vivo spleen targeting of Fab phage clones by BRASIL. To be noted: 5 minutes circulation, FIG. 5.

Chain of GST-β1 integrin (P05556 752-798 limits assumed): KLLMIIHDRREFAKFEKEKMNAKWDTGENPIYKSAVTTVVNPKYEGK

In the case of AGWLYMSWK, the “β3/BSA Ratio” value in test [1] (colonies from β3-GST-coated wells divided by those from BSA) amounted to 2.4. The “β3/GST Ratio” value in [1] (colonies from β3-GST-coated wells divided by those from GST) amounted to 1.8.

As for “Annexin V: 36 kDa endogenous protein analog of the VISY peptide, ligand of β5 integrin cytoplasmic domain”, the “binding of Annexin V to GST-β5 integrin” value with GST-β5 integrin (FIG. 20A) is reported as “bound strongly”; with GST-β5 integrin (Tris-buffered saline (TBS)), “Low binding”; with GST-β5 integrin (cytoplasmic buffer with or without added calcium (2 mM)), “high binding”. Further, the “binding of Annexin V to GST-β1 integrin” value with GST-β1 integrin is reported as “did not bind”. Besides, the “binding of Annexin V to GST-β3 integrin” value with GST-β3 integrin is reported as “did not bind”.

“GLDTYRGSP [TYR-11 tested as penetratin chimera]”: in the test with endothelial cells, the “effect on endothelial cell migration” value is on record as “increase cell migration”.

On to “SDNRYIGSW [Y-18 tested as penetratin chimera]”, for which the “effect on endothelial cell migration” value in the test on endothelial cells was “increase cell migration”.

On to TLRKYFHSS, for which, in [2] (X4YX4 library phosphorylated with Fyn), the “β3 or β5/GST” value came to 5.6.

TMLRYFMFP registered a Phos/Unphos in [2] (phage phosphorylated by Fyn versus unphosphorylated phage) of 4.2.

Regarding “VISY-penetratin chimera: chimeric peptide containing VISY peptide (VVISYSMPD) linked to penetratin (antennapedia), plus a biotin moiety (VVISYSMPDRQIKIWFQNRRMKWKK; also: plus a biotin moiety, site not given here)”, the “induction of apoptosis (PI staining)” value with HUVEC cells was “induction of apoptosis”. In the test on HUVEC, the “induction of apoptosis (chromatin fragmentation)” value is on record as “induction of apoptosis”.

B1: Fab clone #6: chicken Fab phage clone from α-spleen library, localized in mouse spleen (protein)
scFv: CQPAMAAVTLDESGGGLQTPGGTLSLVCKASGISIGYGMNWVRQAPGKGLEYVASISGDGNFAHYGAPVKGRATISRDDGQNTVTLQLNNLR
modifications: Fab format
With B1, the “binding to mouse spleen cells compared to Fd-tet insertless control phage” value with mouse spleen cells (FIG. 3) is given as “lowest degree of differential binding”. In the test with mouse spleen cells (FIG. 4), the “binding to mouse spleen cells, direct comparison with NPC-3TT” value is recorded as “only slightly higher than the binding of phage NPC-3TT”. Besides, in the test with mouse spleen, the “binding to spleen compared to Fd-tet phage” value is recorded as “many-fold increased binding to spleen”.
